Assay results published in patent US20170189519A1.

Experiments:
Conditions in all cases: remark: other sources report otherwise
[1] = target: Tex_s127H1-t2-cl18long (influenza A virus H1N1 A/Texas/UR06-0526/07)
[2] = target: NY_s127H1-t2-cl18long (influenza A virus H1N1 A/New York/629/95)
[3] = target: 129C2 (influenza A H1N1 A/Brisbane/59/2007); test: ELISA, coated CR6261, P. pastoris medium
[4] = target: 192C4 (influenza A H1N1 A/Brisbane/59/2007); test: ELISA, coated CR6261, P. pastoris medium
[5] = target: 174G3 (influenza A H1N1 A/Brisbane/59/2007); test: ELISA, coated CR6261, P. pastoris medium
[6] = target: 252B8 (influenza A H1N1 A/Brisbane/59/2007); test: ELISA, coated CR6261, P. pastoris medium
[7] = target: 145E8 (influenza A H1N1 A/Brisbane/59/2007); test: ELISA, coated CR6261, P. pastoris medium
[8] = target: 126C3 (influenza A H1N1 A/Brisbane/59/2007); test: ELISA, coated CR6261, P. pastoris medium
[9] = target: 123E2 (influenza A H1N1 A/Brisbane/59/2007); test: ELISA, coated CR6261, P. pastoris medium
[10] = target: 245C9 (influenza A H1N1 A/Brisbane/59/2007); test: ELISA, coated CR6261, P. pastoris medium
[11] = target: 266A11 (influenza A H1N1 A/Brisbane/59/2007); test: ELISA, coated CR6261, P. pastoris medium
[12] = target: 244B8 (influenza A H1N1 A/Brisbane/59/2007); test: ELISA, coated CR6261, P. pastoris medium
[13] = target: 182G8 (influenza A H1N1 A/Brisbane/59/2007); test: ELISA, coated CR6261, P. pastoris medium
[14] = target: 138F11 (influenza A H1N1 A/Brisbane/59/2007); test: ELISA, coated CR6261, P. pastoris medium
[15] = target: 134A4 (influenza A H1N1 A/Brisbane/59/2007); test: ELISA, coated CR6261, P. pastoris medium
[16] = target: 18987 (influenza A H1N1 A/Brisbane/59/2007); test: ELISA, coated CR6261, P. pastoris medium
[17] = target: 188F4 (influenza A H1N1 A/Brisbane/59/2007); test: ELISA, coated CR6261, P. pastoris medium
[18] = target: 138F8 (influenza A H1N1 A/Brisbane/59/2007); test: ELISA, coated CR6261, P. pastoris medium
[19] = target: 230G9 (influenza A H1N1 A/Brisbane/59/2007); test: ELISA, coated CR6261, P. pastoris medium
[20] = target: 194E4 (influenza A H1N1 A/Brisbane/59/2007); test: ELISA, coated CR6261, P. pastoris medium
[21] = target: 193B6 (influenza A H1N1 A/Brisbane/59/2007); test: ELISA, coated CR6261, P. pastoris medium
[22] = target: 20688 (influenza A H1N1 A/Brisbane/59/2007); test: ELISA, coated CR6261, P. pastoris medium
[23] = target: 25304 (influenza A H1N1 A/Brisbane/59/2007); test: ELISA, coated CR6261, P. pastoris medium
[24] = target: 191D5 (influenza A H1N1 A/Brisbane/59/2007); test: ELISA, coated CR6261, P. pastoris medium
[25] = target: 145C9 (influenza A H1N1 A/Brisbane/59/2007); test: ELISA, coated CR6261, P. pastoris medium
[26] = target: 162B3 (influenza A H1N1 A/Brisbane/59/2007); test: ELISA, coated CR6261, P. pastoris medium
[27] = target: 199F3 (influenza A H1N1 A/Brisbane/59/2007); test: ELISA, coated CR6261, P. pastoris medium
[28] = target: 127H1 (influenza A H1N1 A/Brisbane/59/2007); test: ELISA, coated CR6261, P. pastoris medium
[29] = target: 145E7 (influenza A H1N1 A/Brisbane/59/2007); test: ELISA, coated CR6261, P. pastoris medium
[30] = target: 134H10 (influenza A H1N1 A/Brisbane/59/2007); test: ELISA, coated CR6261, P. pastoris medium
[31] = target: 13185 (influenza A H1N1 A/Brisbane/59/2007); test: ELISA, coated CR6261, P. pastoris medium
[32] = target: 304G11 (influenza A H1N1 A/Brisbane/59/2007); test: ELISA, coated CR6261, P. pastoris medium
[33] = target: 112F3 (influenza A H1N1 A/Brisbane/59/2007); test: ELISA, coated CR6261, P. pastoris medium
[34] = target: 204C5 (influenza A H1N1 A/Brisbane/59/2007); test: ELISA, coated CR6261, P. pastoris medium
[35] = target: 182D3 (influenza A H1N1 A/Brisbane/59/2007); test: ELISA, coated CR6261, P. pastoris medium

B1: CR6261 (antibody, V domains shown)
VH: EVQLVESGAEVKKPGSSVKVSCKASGGPFRSYAISWVRQAPGQGPEWMGGIIPIFGTTKYAPKFQGRVTITADDFAGTVYMELSSLRSEDTAMYYCAKHMGYQVRETMDVWGKGTTVTVSS
VL: QSVLTQPPSVSAAPGQKVTISCSGSSSNIGNDYVSWYQQLPGTAPKLLIYDNNKRPSGIPDRFSGSKSGTSATLGITGLQTGDEANYYCATWDRRPTAYVVFGGGTKLTVLG
**Q.** What does the source list for B1?
**A.** EC50 [1]: 0.369 µg/mL; EC50 [2]: 0.455 µg/mL; CR6261 binding signal [3]: 199000; CR6261 binding signal [4]: 343000; CR6261 binding signal [5]: 491000; CR6261 binding signal [6]: 285000; CR6261 binding signal [7]: 212000; CR6261 binding signal [8]: 220000; CR6261 binding signal [9]: 477000; CR6261 binding signal [10]: 180000; CR6261 binding signal [11]: 90600; CR6261 binding signal [12]: 274000; CR6261 binding signal [13]: 400000; CR6261 binding signal [14]: 148000; CR6261 binding signal [15]: 456000; CR6261 binding signal [16]: 336000; CR6261 binding signal [17]: 287000; CR6261 binding signal [18]: 348000; CR6261 binding signal [19]: 855000; CR6261 binding signal [20]: 409000; CR6261 binding signal [21]: 207000; CR6261 binding signal [22]: 286000; CR6261 binding signal [23]: 396000; CR6261 binding signal [24]: 124000; CR6261 binding signal [25]: 182000; CR6261 binding signal [26]: 280000; CR6261 binding signal [27]: 329000; CR6261 binding signal [28]: 800000; CR6261 binding signal [29]: 132000; CR6261 binding signal [30]: 592000; CR6261 binding signal [31]: 844000; CR6261 binding signal [32]: 111000; CR6261 binding signal [33]: 450000; CR6261 binding signal [34]: 833000; CR6261 binding signal [35]: 143000
